# Target: the molecule itself
# Test: AUC; sedimentation equilibrium, 20 °C, 25 mM Tris-HCl pH 8.0, 50 mM NaCl with and without 20 mM EDTA; 13, 33 and 50 μM protein; 25,000, 35,000 and 45,000 rpm; monomer-dimer model, dimer to monomers
protein,measurement,value
AYEdes (N-terminal His6 tag followed only by the 70 designed residues of AYEdesign) (other) KTIFVIVPTNEEQVAFLEALAKQDELNFDWQNPPTEPGQPVVILIPSDMVEWFLEMLKAKGIPFTVYVEE,Kd,~150 µM

# Reference: paper PMC3764424, “High-resolution Structural and Thermodynamic Analysis of Extreme Stabilization of Human Procarboxypeptidase by Computational Protein Design” (Journal of Molecular Biology, 2007)
